The assay concerns the target T1, Ups1 (S. cerevisiae, UniProt Q05776 1-175).
T1 sequence: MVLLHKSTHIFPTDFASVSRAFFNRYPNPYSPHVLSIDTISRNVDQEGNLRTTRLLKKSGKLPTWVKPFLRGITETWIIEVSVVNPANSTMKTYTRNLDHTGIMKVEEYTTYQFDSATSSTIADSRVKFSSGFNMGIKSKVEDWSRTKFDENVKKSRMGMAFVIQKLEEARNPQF
Nature of the assay: crystal structure.

B1: Mdm35 (natural protein)
chain: MGNIMSASFAPECTDLKTKYDSCFNEWYSEKFLKGKSVENECSKQWYAYTTCVNAALVKQGIKPALDEAREEAPFENGGKLKEVDK
Consider B1, for which the binding result is given as “binds”.

Source of the values: publication doi:10.1101/702415 (bioRxiv, 2019).
